Data published in patent US6734342B2, “Theobromine synthase polypeptide of coffee plant and the gene encoding said polypeptide” (Nara Institute of Science and Technology, priority 2000, dated 2004).

B1: SEQ.ID. NO: 3: Coffea arabica polypeptide homologous to MXMT1, encoded by clone #1 cDNA (SEQ ID NO: 4) (protein, listed as Caffea arabica)
chain: MELQEVLHMNGGEGEASYAKNSSFNQLVLAKVKPVLEQCVRELLRANLPNINKCIKVADLGCASGPNTLLTVWDTVQSIDKVKQEMKNELERPTIQVFLTDLFQNDFNSVFMLLPSFYRKLEKENGRKIGSCLIAAMPGSFHGRLFPEESMHFLHSSYSLQFLSQVPSGLVTELGITANKRSIYSSKASPPPVQKAYLDQFTKDFTTFLRMRSEELLSRGRMLLTCICKGDECDGPNTMDLLEMAINDLVAEGRLGEEKLDSFNVPIYTASVEEVKCMVEEEGSFEILYLQTFKLRYDAGFSIDDDCQVRSHSPVYSDEHARAAHVASLIRSVYEPILASHFGEAIIPDIFHRFATNAAKVIRLGKGFYNNLIISLAKKPEKSDI
B2: MXMT1: theobromine synthase polypeptide of Coffea arabica, amino acids 1 to 378 of SEQ ID NO: 1, expressed in E. coli as GST fusion (protein, listed as Caffea arabica)
chain: MELQEVLHMNEGEGDTSYAKNASYNLALAKVKPFLEQCIRELLRANLPNINKCIKVADLGCASGPNTLLTVRDIVQSIDKVGQEEKNELERPTIQIFLNDLFQNDFNSVFKLLPSFYRKLEKENGRKIGSCLISAMPGSFYGRLFPEESMHFLHSCYSVHWLSQVPSGLVIELGIGANKGSIYSSKGCRPPVQKAYLDQFTKDFTTFLRIHSKELFSRGRMLLTCICKVDEFDEPNPLDLLDMAINDLIVEGLLEEEKLDSFNIPFFTPSAEEVKCIVEEEGSCEILYLETFKAHYDAAFSIDDDYPVRSHEQIKAEYVASLIRSVYEPILASHFGEAIMPDLFHRLAKHAAKVLHMGKGCYNNLIISLAKKPEKSDV
B3: MTL2: Coffea arabica polypeptide homologous to MXMT1, encoded by clone #6 cDNA (SEQ ID NO: 6) (protein, listed as Caffea arabica)
chain: MELQEVLHMNGGEGDASYAKNSSFNQLVLAKVKPVLEQCVGELLRANLPNINKCIKVADLGCASGPNTLLTVRDIVQSIDDVRQEMKNELERPTIQVFLTDLFQNDFNSVFMLLPSFYRKLEKENGRKIGSCLIAAMPGSFHGRLFPEESMHFLHSSYSLQFLSQVPSGLVTELGITANKRSIYSSKASPPPVQKAYLDQFTKDFTTFLRIRSEELLSRGRMLLTCICKGDEFDGPNTMDLLEMAINDLVVEGHLEEEKLDSFNVPIYAASVEELKCIVEEEGSFEILYLETFKLRYDAGFSIDDDCQVRSHSPEYSDEHARAAHVASLLRSVYEPILANHFGEAIIPDIFHRFATNAAKVIRLGKGFYNNLIISLAKKPEKSDI
B4: MTL3: Coffea arabica polypeptide homologous to MXMT1, encoded by clone #35 cDNA (SEQ ID NO: 8) (protein, listed as Caffea arabica)
chain: MELQEVLRMNGGEGDTSYAKNSAYNQLVLAKVKPVLEQCVRELLRANLPNINKCIKVADLGCASGPNTLLTVRDIVQSIDKVGQEKKNELERPTIQIFLNDLFPNDFNSVFKLLPSFYRKLEKENGRKIGSCLIGAMPGSFYSRLFPEESMHFLHSCYCLQWLSQVPSGLVTELGISTNKGSIYSSKASRLPVQKAYLDQFTKDFTTFLRIHSEELFSHGRMLLTCICKGVELDARNAIDLLEMAINDLVVEGHLEEEKLDSFNLPVYIPSAEEVKCIVEEEGSFEILYLETFKVLYDAGFSIDDEHIKAEYVASSVRAVYEPILASHFGEAIIPDIFHRFAKHAAKVLPLGKGFYNNLIISLAKKPEKSDV

Columns and labels:
[1] = Measurement of enzymatic (methyl transferase) activity of GST fusion proteins by thin layer chromatography; type: biochemical; conditions: for activity as theobromine synthase: polypeptides with higher than 80% homology to SEQ.ID. NO: 1; for activity as a methyl transferase: substrates xanthine, 7-methylxanthine, theobromine, paraxanthine, theophylline, 200 μM each
Description: The open reading frame regions of MTL1 (Clone #1), MTL2 (Clone #6), MTL3 (Clone #35) and MXMT1 (Clone #45) were amplified by PCR (polymerase chain reaction). Then, they were optionally cloned into pGEX 4T-2 vector (Pharmacia) and E. coli (JM109) cells were transformed with the resulting plasmids. The obtained E. coli cells were cultured in LB liquid medium containing ampicillin. When OD600 of the culture reached to 0.5, IPTG (isopropyl thio-β-D-galactoside) was added to it and the final concentration of IPTG was made to 1 mM, then the mixture was further cultured at 16° C. for 6 hours. E. coli was desrupted by a sonicator and the protein of the purpose was purified by glutathione Sepharose 4B as a GST (glutathione S-transferase) fusion protein. Concentration of the protein was measured by the Bradford method. Each of the GST fusion protein (500 ng) was separated by SDS-PAGE (sodium dodecyl sulfate polyacrylamide gel electro-phoresis), then it was stained by CBB (coumasie Brilliant Blue) to confirm purification.
Measurement of enzymatic activity was performed using thin layer chromatography (TLC), based on the method of Kato et al. (Plant Physiol., 1996, 98, 629-636). In concrete, the reaction mixture of 100 μl, containing 100 mM Tris-HCl (pH 7.5), 200 μM substrate (xanthine, 7-methylxanthine, theobromine, paraxanthine, theophylline), 4 μM ^14C-labeled S-adenosylmethionine, 200 μM MgCl2, 200 ng GST fusion protein, was incubated at 27° C. for 2 hours. After the reaction, the resulting mixture was extracted with 1 ml of chloroform, the chloroform layer was recovered, then chloroform was evaporated by speed back concentrator. The residue was dissolved in 5 μl of 50% methanol solution, then the solution was developed by TLC (solvent for development was water:acetic acid:n-butanol=2:1:4, v/v/v). After the development, signal of radio activity was detected by image analyzer (Fuji BAS 2000). The result of enzymatic activity, which was measured on the fusion proteins derived from MTL2, MTL3 and MXMT1 using xanthine (X), 7-methylxanthine (7-Mx), theobromine (Tb), paraxanthine (Px) and theophylline (Tp) as the substrate, was shown in FIG. 5.

[2] = Enzymatic activity measurement and identification of the reaction product by HPLC; type: biochemical; conditions: 200 μM 7-methylxanthine, 50 μM S-adenosylmethionine, 200 ng GST fusion protein, 27° C., 2 hours; UV 254 nm (FIG. 6)
Description: Using high performance liquid chromatography (HPLC), enzymatic activity of the MXMT1 fusion protein was measured and reaction product obtained from the enzymatic reaction was identified. The reaction mixture of 100 μl, containing 100 mM Tris-HCl (pH 7.5), 200 μM of substrate (7-methylxanthine, paraxanthine, theobromine), 50 μM of S-adenosylmethionine, 200 μM of MgCl2, 200 ng of GST fusion protein, was incubated at 27° C. for 2 hours. After incubation, the mixture was extracted with 1 ml of chloroform, the chloroform layer was recovered, then chloroform was evaporated by a speed back concentrator. The residue was dissolved in 50 μl of 12% acetonitrile. Then the solution was fractionated by HPLC (Shodex Rspak DS-613 column) provided with UV detection system. As the solution for development, 12% acetonitrile was used and the signal was detected for absorbance of 254 nm.
The MXMT1 fusion protein was reacted with S-adenosylmethionine and 7-methylxanthine, which is the substrate and the reaction product was analyzed by HPLC. […] Furthermore, S-adenosylmethionine and 7-methylxanthine was reacted with MXMT1 fusion protein and then theobromine was added to the reaction mixture. The peak position of the reaction product detected in FIG. 6A coincided with the position of theobromine, which was analyzed as the standard compound. […]

Molecule	activity as theobromine synthase [1]	reaction product identified by HPLC [2]	activity to synthesize theobromine, using 7-methylxanthine as the substrate ([1]; 200 μM 7-methylxanthine, 4 μM 14C-S-adenosylmethionine, 200 ng GST fusion protein, 27° C., 2 hours, TLC (FIG. 5))	relative activity to synthesize caffeine, using paraxanthine as the substrate ([1]; 200 μM paraxanthine, relative to the activity with 7-methylxanthine, TLC (FIG. 5)) [%]	activity as a methyl transferase ([1]; TLC (FIG. 5))
B1	did not exhibit activity as theobromine synthase	–	–	–	–
B2	–	theobromine was formed	potent activity to synthesize theobromine	15	–
B3	did not exhibit activity as theobromine synthase	–	–	–	did not exhibit activity as a methyl transferase
B4	did not exhibit activity as theobromine synthase	–	–	–	did not exhibit activity as a methyl transferase
